Measured values taken from paper PMC8355051 (Nature biotechnology, 2021).

Tests used:
[1] = target: Spike-RBD-15aa-LgBiT-12xHisTag (SARS-CoV-2, UniProt P0DTC2); experiment: split reporter
[2] = target: Spike-RBD-25aa-SmBiT-12xHisTag (SARS-CoV-2, UniProt P0DTC2); experiment: split reporter
[3] = target: Biotinylated Spike RBD protein (SARS-CoV-2, UniProt P0DTC2, biotin); experiment: BLI

Measured: binding result

B1: C105 IgG (antibody, V domains shown)
VH: QVQLVESGGGLIQPGGSLRLSCAASGFTVSSNYMSWVRQAPGKGLEWVSVIYSGGSTYYADSVKGRFTISRDNSKNTLYLQMNSLRAEDTAVYYCARGEGWELPYDYWGQGTLVTVSS
VL: QSALTQPPSASGSPGQSVTISCTGTSSDVGGYKYVSWYQQHPGKAPKLMIYEVSKRPSGVPDRFSGSKSGNTASLTVSGLQAEDEADYYCSSYEGSNNFVVFGGGTKLTVL
binds: [1] | [2] | [3]
